From patent publication US7534431

Target: carcinoembryonic antigen (CEA) (UniProt P06731)
Assay: size-exclusion HPLC shift of radioiodinated bispecific conjugate in the presence of excess CEA

UniProt P06731, sequence (P06731 35-685 limits assumed): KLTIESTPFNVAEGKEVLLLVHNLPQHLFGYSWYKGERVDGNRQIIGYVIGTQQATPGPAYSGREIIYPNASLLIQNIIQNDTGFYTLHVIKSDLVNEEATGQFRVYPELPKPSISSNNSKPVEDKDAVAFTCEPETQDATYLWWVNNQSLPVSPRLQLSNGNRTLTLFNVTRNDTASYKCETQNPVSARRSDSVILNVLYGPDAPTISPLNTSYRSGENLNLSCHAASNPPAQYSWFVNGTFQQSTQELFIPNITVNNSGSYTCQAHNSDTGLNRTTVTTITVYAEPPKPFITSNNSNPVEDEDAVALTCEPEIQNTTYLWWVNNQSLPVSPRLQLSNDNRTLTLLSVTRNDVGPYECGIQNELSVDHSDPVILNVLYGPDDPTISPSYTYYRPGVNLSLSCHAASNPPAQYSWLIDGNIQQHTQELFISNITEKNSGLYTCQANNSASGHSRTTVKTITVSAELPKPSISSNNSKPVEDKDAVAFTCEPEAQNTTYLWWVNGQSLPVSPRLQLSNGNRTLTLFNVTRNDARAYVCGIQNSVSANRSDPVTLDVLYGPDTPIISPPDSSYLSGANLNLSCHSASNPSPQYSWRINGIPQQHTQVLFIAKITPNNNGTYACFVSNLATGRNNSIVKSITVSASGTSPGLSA

immunoreactivity (fraction of radioiodinated sample shifted by excess CEA): > 85%
Substance: hMN-14×734 bispecific antibody (Fab' of humanized anti-CEA hMN-14 coupled to Fab' of murine anti-indium-DTPA 734)
